According to a protein production outcome set (Wang et al. 2014):

Test: label from the status in PepcDB records

Sequence	protein production
MSLQTCVLHRLSLPLKFPMRTAHGHIREKQAILVQLVDADGIEGWSECVALAEPTYTEECTDTAWVMLVHHLVPRFARWLRAASQDQDVDPRTVCEALRDVRGNRMSVAAIEMAVWDWYAARTGQPLVGLLGGGRDRVEVSATLGMSESLDVLIQSVDAAVEQGFRRVKLKIAPGRDRAAIKAVRLRYPDLAIAADANGSYRPEDAPVLRQLDAYDLQFIEQPLPEDDWFDLAKLQASLRTPVCLDESVRSVRELKLTARLGAARVLNVKPGRLGGFGATLRALDVAGEAGMAAWVGGMYETGVGRVHGLIAAALPLMRYATDLGPSDRYFEQDVLKEPIAFVEPGVIQVPQCAGVADWVDRDAVRRFSTATWSVDLRTLEGHHHHHH	not failed
MSLRAVRLHAKWDPRPEFKLGPKDIEGKLTWLGSKVWRYPEVRVEEVPEPRIEKPTEIIIKVKACGICGSDVHMAQTDEEGYILYPGLTGFPVTLGHEFSGVVVEAGPEAINRRTNKRFEIGEPVCAEEMLWCGHCRPCAEGFPNHCENLNELGFNVDGAFAEYVKVDAKYAWSLRELEGVYEGDRLFLAGSLVEPTSVAYNAVIVRGGGIRPGDNVVILGGGPIGLAAVAILKHAGASKVILSEPSEVRRNLAKELGADHVIDPTKENFVEAVLDYTNGLGAKLFLEATGVPQLVWPQIEEVIWRARGINATVAIVARADAKIPLTGEVFQVRRAQIVGSQGHSGHGTFPRVISLMASGMDMTKIISKTVSMEEIPEYIKRLQTDKSLVKVTMLNEGHHHHHH	not failed
MSLRVIDTHCDALYKLQAGKGKYTFQDAEELDVNFERLIEAKMLLQGFAIFLDEDIPVEHKWKKAVEQVNIFKQHVLHKGGIIHHVKKWCDLENLPEDKIGAMLTLEGIEPIGRDLDKLTQLLDGGVLSVGLTWNNANLAADGIMEERGAGLTRFGKDIIHLLNERKVFTDVSHLSVKAFWETLEQAEFVIASHSNAKAICSHPRNLDDEQIKAMIEHDAMIHVVFYPLFTTNNGVADTEDVIRHIDHICELGGLKNIGFGSDFDGIPDHVKGLEHVGKYQSFLETLEKHYTKEEIEGFASRNFLNHLPKEGHHHHHH	not failed
MSLSAKSSLKEVAELAGVGYATASRALSGKGYVSPQTREKVQAAAKELNYVPNQLAKALREHRSALVGVIVPDLSNEYYSESLQTIQQDLKAAGYQMLVAEANSVQAQDVVMESLISIQAAGIIHVPVVGSIAPEGIPMVQLTRGELGPGFPRVLCDDEAGFFQLTESVLGGSGMNIAALVGEESLSTTQERMRGISHAASIYGAEVTFHFGHYSVESGEEMAQVVFNNGLPDALIVASPRLMAGVMRAFTRLNVRVPHDVVIGGYDDPEWYSFVGAGITTFVPPHEEMGKEAVRLLVDLIENPELPTGDVVLQGQVILRGSSTHEGHHHHHH	not failed
MSLSDQEFDEKYLELSEELKQSEKHKGTLDQGASQFLNAIEFVLRVYRQTEVIYVYAHLKNDQDTGNTDYQALYARASSLFSKVSEAVSWFEPEILQLSDDQIWQYFKEEPKLEVYRHYIQQIVDNRAHVLSAEQESLLAGAGEIFDASSDTFAVLNNADLVFPTIEGENGEIVQLSHGVYGQLLESTDRRVREAAFKGLYSVYEQFRNTFASTLGTHIKGHNFKAKVRNYSSAREASLSNNHIPESVYDTLVDVVNKHLPLLHRYMELRKRLLEVEKLHMYDLYTPVLGEAPITFTYEEAKEKALEALKPMGEEYMAIVEKAFSERWIDVVENKGKRSGAYSSGSYDTNPYILLNWHDTLDQLFTLVHEMGHSVHSYFTRSNQPYVYGDYSIFLAEIASTTNENILTEYLLETEKDPRVRAYVLNHYLDGFKGTVFRQTQFAEFEHFMHTEDEKGVPLTSEYLSDSYGKLNAKYYGPAVEEDPEIKFEWSRIPHFYYNYYVFQYSTGFSAASALAKKILNQEPEALENYLAYLKAGNSDYPVEVMKKAGVDMTQAAYIEDAMSMFEQRLNELEELIDREGHHHHHH	not failed
MSLSDTIPVFDGHNDFLLRLLRNPANRETIWLKGDGTGHLDLPRMKEGGFAGGFFAIYVPSPQAHDAAHFEAMMDAPPFELPLPPMIRAEQAQPVALAMAGHLLWMERAARGRFKVCRTAAEVRSCHADGIVSGIMHMEGAEAIGADLDALHLFHSLGLRSLGPVWSRPTVFGHGVPFRFPGSPDTGEGLTEAGRRLVAECNRLKIMLDLSHLNEKGFDDVARLSDAPLVATHSNAHAVTPSTRNLTDRQLAMIRESRGMVGLNFATSFLREDGRRSAEMGWEPVLRHLDHLIDRLGEDHVGMGSDFDGATIPQGIADVTGLPALQAAMRAHGYDEPLMRKLCHENWYGLLERTWGEGHHHHHH	not failed
MSLSHKAWQNAHAMYENDACAKALGIDIISMDEGFAVVTMTVTAQMLNGHQSCHGGQLFSLADTAFAYACNSQGLAAVASACTIDFLRPGFAGDTLTATAQVRHQGKQTGVYDIEIVNQQQKTVALFRGKSHRIGGTITGEAEGGSHHHHHH	not failed
MSLSINSREVLAEKVKNAVNNQPVTDMHTHLFSPNFGEILLWDIDELLTYHYLVAEVMRWTDVSIEAFWAMSKREQADLIWEELFIKRSPVSEACRGVLTCLQGLGLDPATRDLQVYREYFAKKTSEEQVDTVLQLANVSDVVMTNDPFDDNERISWLEGKQPDSRFHAALRLDPLLNEYEQTKHRLRDWGYKVNDEWNEGSIQEVKRFLTDWIERMDPVYMAVSLPPTFSFPEESNRGRIIRDCLLPVAEKHNIPFAMMIGVKKRVHPALGDAGDFVGKASMDGVEHLLREYPNNKFLVTMLSRENQHELVVLARKFSNLMIFGCWWFMNNPEIINEMTRMRMEMLGTSFIPQHSDARVLEQLIYKWHHSKSIIAEVLIDKYDDILQAGWEVTEEEIKRDVADLFSRNFWRFVGRNDHVTSVKVEQQTEGHHHHHH	not failed
MSLSLLITSITINTSHLQGMLGFYRIIGFQFTASKVDKGSEVHRAVHNGVEFSLYSIQNPQRSQIPSLQLGFQITDLEKTVQELVKIPGAMCILDPTDMPDGKKAIVLDPDGHSIELCELEGHHHHHH	not failed
MSLSNSKSTTTKDTVATLPNGASSLTETYGLWSINCGIQEGKKVCFMHRQEVNDQNRVVVAMSVVLNADGVVSGNLTVPFGILVSKPVRLQVDEGKAVIETGIRTCVPAGCIVPIVFDKNYVAALRAGKHLKLAMTIAAPGEPPLNDLFVQLNGFSNALNRLIALQKEGHHHHHH	not failed
MSLSQNAPKSKGIKREELKKQYEDVEDEEEIGSDDDLTRGKRRKTEKEKQKLEESELVEMKKLENLIFGSLYSPVTFGKEEEEDGSALFHVDRSAVRQIPDYEDDGDDDEELSDEENGQVVAIRKGEAAWEDEEEKQINVDIASVNRLRKLRKEENEGLISGSEYIARLRAHHAKLNPGTDWARPDSQIVDGESSDDDDTQDGGVDDILRTNEDLVVKSRGNKLCAGRLEYSKLVDANAADPSNGPINSVHFHQNAQLLLTAGLDRRLRFFQIDGKRNTKIQSIFLEDCPIRKAAFLPNGSQVIVSGRRKFFYSFDLEKAKFDKIGPLVGREEKSLEYFEVSQDSNTIAFVGNEGYILLVSTKTKELIGTLKMNGSVRSLAFSEDGKHLLSSGGDGQVYVWDLRTMKCLYKGVDEGSTCGTSLCSSLNGALFASGTDRGIVNIYKKSEFVGGKRKPIKTVDNLTSKIDFMKFNHDAQILAIVSTMNKNSVKLVHVPSLTVFSNWPPPNSTMHYPRCLDFSPGSGFMAMGNAAGKVLLYKLHHYQNA	failed
MSLSRSEEMHRLTENVYKTIMEQFNPSLRNFIAMGKNYEKALAGVTYAAKGYFDALVKMGELASESQGSKELGDVLFQMAEVHRQIQNQLEEMLKSFHNELLTQLEQKVELDSRYLSAALKKYQTEQRSKGDALDKCQAELKKLRKKSQGSKNPQKYSDKELQYIDAISNKQGELENYVSDGYKTALTEERRRFCFLVEKQCAVAKNSAAYHSKGKELLAQKLPLWQQA	not failed
MSLSSGEHEASRVLRERDYRWEGTEEEAYKAEGTHFSGARRQTLVGRPAGQEAPAFETRYFEVEPGGYTTLERHEHTHVVMVVRGHAEVVLDDRVEPLTPLDCVYIAPHAWHQIHATGANEPLGFLCIVDSDRDRPQRPDADDLARMCADPAVARRIRTEGHHHHHH	not failed
MSLSTARIMLVDDHPIVREGYRRLIERRPGYAVVAEAADAGEAYRLYRETTPDIVVMDLTLPGPGGIEATRHIRQWDGAARILIFTMHQGSAFALKAFEAGASGYVTKSSDPAELVQAIEAILAGRRAMSPDIAQEIAEERVEGREGHHHHHH	not failed
MSLSVEFNKQQVRPRSEISPQDCWDITPLYLNRKAWKADLDSFGLKTDGSPTWPALQATQYQLDNSESLLSLLTTLFSIERKLNKLYVYAHLTHDQDITNQEGIADLKSITHLHTLFAEETSWVQPALTSLSESLIAQHLSAPCLAPYRFYLEKIFRLSIHTGTPGEEKILASAFTPLEVASKAFSSLSDSEIPFGQATDSEGNSHPLSHALASLYMQSTDRELRKTSYLAQCERYHSYRHTFANLLNGKIQAHVFYAKNKRYNSCLQAALYHNNIPTTVYTNLIDIVKKNSSLITKYFSIKQRCLNLKDFHFYDVYAPLSQSKEKKYTFQEAVDLIYTSLSPLGTEYIDTLKQGLTTQGWVDKYENLNKRSGAYSSGCYDSHPYVLLNYTGTLYDVSVIAHEGGHSMHSYFSRKHQPFHDAQYPIFLAEIASTLNEMLLMDSMLKESDSKEEKITILTRCLDTIFSTLFRQVLFASFEYDIHHAAEHGVPLTEEYLSSTYKNLQNEFYGEIITFDVLSNIEWARIPHFYYNFYVYQYATGIIAALCFLEKILNNEDNALNSYLNFLKSGGSDFPLEILKKSGLDMGTVEPIQKAFCFIEKKIQELSSLIEGHHHHHH	not failed
MSLSYLTEEKLTIVGAAGMIGSNMAQTAAMMRLTPNLCLYDPFAVGLEGVAEEIRHCGFEGLNLTFTSDIKEALTDAKYIVSSGGAPRKEGMTREDLLKGNAEIAAQLGKDIKSYCPDCKHVIIIFNPADITGLVTLIYSGLKPSQVTTLAGLDSTRLQSELAKHFGIKQSLVTNTRTYGGHGEQMAVFASTAKVNGTPLTDLIGTDKLTNEQWAELKQRVVKGGANIIKLRGRSSFQSPSYVSIEMIRAAMGGEAFRWPAGCYVNVPGFEHIMMAMETTITKDGVKHSDINQLGNEAERAALKESYSHLAKLRDEVIAMGIIPAIADWKTVNPNEGHHHHHH	not failed
MSLTAQIRLAEPADLNDDTLRARAVAAARGDQRFDVLITGGTLVDVVTGELRPADIGIVGALIASVHEPASRRDAAQVIDAGGAYVSPGLIDTHMHIESSMITPAAYAAAVVARGVTTIVWDPHEFGNVHGVDGVRWAAKAIENLPLRAILLAPSCVPSAPGLERGGADFDAAILADLLSWPEIGGIAEIMNMRGVIERDPRMSGIVQAGLAAEKLVCGHARGLKNADLNAFMAAGVSSDHELVSGEDLMAKLRAGLTIELRGSHDHLLPEFVAALNTLGHLPQTVTLCTDDVFPDDLLQGGGLDDVVRRLVRYGLKPEWALRAATLNAAQRLGRSDLGLIAAGRRADIVVFEDLNGFSARHVLASGRAVAEGGRMLVDIPTCDTTVLKGSMKLPLRMANDFLVKSQGAKVRLATIDRPRFTQWGETEADVKDGFVVPPEGATMISVTHRHGMAEPTTKTGFLTGWGRWNGAFATTVSHDSHNLTVFGGNAGDMALAANAVIGTGGGMAVASEGKVTAILPLPLSGLVSDAPLEEVARAFEDLREAVGKVVEWQPPYLVFKACFGATLACNIGPHQTDMGIADVLTGKVMESPVIEVLGEGHHHHHH	not failed
MSLTEEFVNKEDALKNYNAKEFRTPDGYTSDMILTTVKELNGKPTLHILLIKRSLTNAEGKPNMEGGKWAVPGGFVDENESAEQAAERELEEETSLTDIPLIPFGVFDKPGRDPRGWIISRAFYAIVPPEALEKRAAGDDAAEIGLFPMTEALELPLAFDHLDMLKKAFSAITEEFLLTEGHHHHHH	not failed
